According to article PMC10119634 (Blood Advances, 2022):

Molecular target: T1, GPVIex (nonglycosylated human GPVI extracellular domain residues 1 to 183) (Homo sapiens)
T1 chain: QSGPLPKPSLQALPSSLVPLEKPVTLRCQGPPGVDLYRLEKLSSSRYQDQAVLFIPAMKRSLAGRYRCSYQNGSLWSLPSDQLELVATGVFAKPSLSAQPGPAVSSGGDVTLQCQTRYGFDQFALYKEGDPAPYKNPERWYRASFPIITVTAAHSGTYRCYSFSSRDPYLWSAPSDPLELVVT
Test: crystal structure

- binding result: binds
B1: Glenzocimab (Fab, V domains shown)
VH: QVQLVQSGAEVKKPGASVKVSCKASGYTFTSYNMHWVRQAPGQGLEWMGGIYPGNGDTSYNQKFQGRVTMTRDTSTSTVYMELSSLRSEDTAVYYCARGTVVGDWYFDVWGQGTLVTVSS
VL: DIQMTQSPSSLSASVGDRVTITCRSSQSLENSNGNTYLNWYQQKPGKAPKLLIYRVSNRFSGVPSRFSGSGSGTDFTFTISSLQPEDIATYYCLQLTHVPWTFGQGTKVEIT
